Test results from publication PMC5774762.

Assays:
[1] = molecular target: SUMO1 conjugated to agarose beads (UniProt P63165); experiment: pull-down; SUMO1 beads, binding of KmUTAG over time (min); percent of total protein bound
[2] = molecular target: SUMO1 conjugated to agarose beads (UniProt P63165); experiment: pull-down; SUMO1 beads with 2.0 M urea, 5 mM TCEP; quantitated against the reaction without urea
[3] = molecular target: SUMO1 conjugated to agarose beads (UniProt P63165); experiment: pull-down; SUMO1 beads, with TCEP, at 42°C; bound UTAG quantitated from the stained gel against room temperature
[4] = molecular target: SUMO1 conjugated to agarose beads (UniProt P63165); experiment: pull-down; SUMO1 beads, 45 min in the presence of hydrogen peroxide (concentration not told); percent of total protein bound
[5] = molecular target: biotinylated SUMO1 (UniProt P63165); experiment: BLI; biotinylated SUMO1 on streptavidin sensors (Octet QK); UTAG as analyte 4-250 nM; 25°C; HBS-T (10 mM HEPES pH 7.4, 150 mM NaCl, 0.05% Tween 20); association 300 s, dissociation 300 s; global single-state fit
[6] = molecular target: SUMO1 (Homo sapiens) (UniProt P63165); settings: cited from earlier work
[7] = molecular target: SUMO1 conjugated to agarose beads (UniProt P63165); experiment: pull-down; SUMO1 beads with various concentrations of hydrogen peroxide (0.006% named in the text); quantitated from the stained gel
[8] = molecular target: SUMO1 conjugated to agarose beads (UniProt P63165); experiment: pull-down; SUMO1-conjugated agarose beads in buffer with hydrogen peroxide (0.6% in the text, 1% in the legend) instead of TCEP; quantitated from the stained gel

Substance | percent of the protein bound after 45 minutes [1] [%] | percent of the protein bound within 15 minutes [1] [%] | percent reduction of binding in 2M urea [2] [%] | percent reduction of binding at 42°C against room temperature [3] [%] | percent of the protein bound after 45 minutes in the presence of peroxide [4] [%] | KD after elimination of the top two analyte traces [5] [nM] | Kd [5] [nM] | koff [5] [s⁻¹] | kon [5] [M⁻¹ s⁻¹] | Kd [6] [nM] | percent reduction of binding with 0.006% peroxide [7] [%] | percent of binding left in the presence of 0.6% H2O2 [8] [%]
KmUTAG, catalytically inactive (C517S) UD domain of Kluyveromyces marxianus Ulp1, MBP/His6 fusion (from UniProt A0ABX6EQA7 1-555) (domain or fragment) | 70 | 50 | 23 | 25 | 60 | 8.7 | 8.7 | 0.00084 | 96000 | – | – | –
ScUTAG (from UniProt Q02724) | – | – | – | – | – | – | – | – | – | 12.8 | – | –
ScUTAG, catalytically inactive (C580S) UD domain of Saccharomyces cerevisiae Ulp1, MBP/His6 fusion (from UniProt Q02724 1-621) (domain or fragment) | – | – | 82 | 87 | – | – | 2 | 4.2e-05 | 21000 | – | 50 | 17
